Results: patent US20230272113A1
Numbering of substitutions follows the chain as printed.

B1: FL-64 (scFv)
scFv: QVQLVESGGGVVQPGRSLRLSCAASGFTFSSYGMHWVRQAPGKGLEWVAVISYDGSNEFYADSVKGRFTISRDNSKNTLYLQMNSLRAEDTAVYYCARGGEITMVRGVIGYYYYGMDVWGQGTTVTVSSGGGGSGGGGSGGGGSDIQMTQSPSSLSASVGNRVTITCRASQSISSYLNWYQQKPGKAPKLLIYAASSLQSGVPSRFSGSGSGTEFTLTISSLQPEDFATYYCLQHNSYPLTFGGGTKVDIK
B2: FL-1 (scFv)
scFv: QVTLKESGPVLVKPTETLTLTCTVSGFSLINARMGVSWIRQPPGKALEWLAHIFSNAEKSYRTSLKSRLTISKDTSKSQVVLTMTNMDPVDTATYYCARIPGYGGNGDYHYYGMDVWGQGTTVTVSSGGGGSGGGGSGGGGSDIQMTQSPSSLSASLGDRVTITCRASQGIRNDLGWYQQKPGKAPKRLIYASSTLQSGVPSRFSGSGSGTEFTLTISSLQPEDFATYYCLQHNNFPWTFGQGTKVEIK
B3: FL-2 (scFv)
scFv: QVTLKESGPVLVKPTETLTLTCTVSGFSLRNARMGVSWIRQPPGKALEWLAHIFSNDEKTYSTSLKSRLTISRDTSKGQVVLTMTKMDPVDTATYYCARIPYYGSGSHNYGMDVWGQGTTVTVSSGGGGSGGGGSGGGGSDIQMTQSPSSLSASVGDRVTITCRASQDIRNDFGWYQQKPGKAPQRLLYAASTLQSGVPSRFSGSGSGTEFTLTISSLQPEDFATYYCLQYNTYPWTFGQGTKVEIK
B4: FL-3 (scFv)
scFv: QVTLKESGPALVKPTETLTLTCTVSGFSLSNARMAVSWIRQPPGKALEWLAHIFSNGEKSYSTSLKSRLTISKDTSKTQVVLTMTNTDPVDTATYFCARIVGYSDWLLPFDHWGQGIMVTVSSGGGGSGGGGSGGGGSDIQMTQSPSSLSASVGDRVTITCRASQNINRFLNWYQQKPGKAPKLLIYAASSLQSGVPSRFSGSGSGTDFTLTISSLQPEDFATYYCLQHNSYPWTFGQGTKVDIK
B5: FL-4 (scFv)
scFv: QVTLKESGPALVKPTETLTLTCTLSGFSLNNAKMGVSWIRQPPGKALEWLAHIFSNDEKSYSTSLKSRLTISKDTSKGQVVLTMTNMDPVDTATYYCARIVGYGSGWYGYFDYWGQGTLVTVSSGGGGSGGGGSGGGGSDIQMTQSPSSLSASVGDRVTITCRASQDIRDDLGWYQQKPGNAPKRLIYGASTLQSGVPSRFSGSGSGTEFTLTISSLQPEDFATYYCLQHNSYPLTFGGGTKVDIK
B6: FL-5 (scFv)
scFv: QVTLKESGPMLVKPTETLTLTCTFSGFSLRNARMGVSWIRQPPGKALEWLAHIFWNDEKSYSTSLKSRLTISKDTSKSQVVLTMTNMDPVDTATYYCARIPYYGSGSYNYGMDVWGQGTTVTVSSGGGGSGGGGSGGGGSDIQMTQSPSSLSASVGDRVTITCRASQGIRNDLGWYQQKPGKAPKRLIYAASSLQSGVPSRFSGSGSGTEFTLTISSLQPEDFATYYCLQHNTYPLTFGGGTKVDIK
B7: FL-6 (scFv)
scFv: QVTLKESGPTLVKPTETLTLTCTLSGFSLNNARMAVSWIRQPPGKTLEWLAHIFSNDEKSYSPSLKSRLTISKDTSKSQVVLTMTNMDPEDTATYYCARIVGYGTGWYGFFDYWGQGILVTVSSGGGGSGGGGSGGGGSDIQMTQSPSSLSASVGDRVTITCRASQGIRNDLGWFQQKPGKAPKRLIYAASVLQSGVPSRFSGSGSGTEFTLTISSLQPEDFATYYCLQHNSYPLTFGGGTKVDIK
B8: FL-7 (scFv)
scFv: QVTLKESGPTLVKPTETLTLTCTVSGFSLNNARMGVSWIRQPPGKALEWLAHIFSNDEKSYSTSLKNRLTISKDSSKTQVVLTMTNVDPVDTATYYCARIVGYGTGWFGYFDYWGQGTQVTVSSGGGGSGGGGSGGGGSDIQMTQSPSSLSASVGDRVTITCRASQDIRTDLAWYQQKPGKAPKRLIYAASSLQSGVPSRFSGSGSGTEFTLTISSLQPEDFATYYCLQHNRYPLTFGGGTKVDIK
B9: FL-8 (scFv)
scFv: QVTLKESGPALVKPTETLTLTCTVSGFSLSYARMGVSWIRQPPGKALEWLAQIFSNDEKSYSTSLKSRLTISKGTSNSQVVLTMTNMDPEDTATYYCARIVGYGTGWYGFFDYWGQGILVTVSSGGGGSGGGGSGGGGSDIQMTQSPSSLSASVGDRVTITCRASQGIRNDLGWYQQKPGKAPKRLIYAASSLQSGVPSRFSGSGSGTEFTLTISSLQPEDFATYYCLQHNSYPLTFGGGTKVDIK
B10: FL-9 (scFv)
scFv: QVTLKESGPTLVKPTETLTLTCTVSGFSLSNARMGVSWIRQPPGKALEWLAHIFSNDEKSYSTSLKSRLTISKDTSKSQVVLTMTNMDPVDTATYYCARIPGYGGNFYYHYYGMDVWGQGTTVTVSSGGGGSGGGGSGGGGSDIQMTQSPSSLSASVGDRVTITCRASQGIRNDLAWYQQKPGKAPKRLIYAASTVQSGVPSRFSGSGSGTEFALTISSLQPEDFATYYCLQHNSFPWTFGQGTKVDIK
B11: FL-10 (scFv)
scFv: QVTLKESGPVLVKPTETLTLTCTVSGFSFRNARMGVSWIRQPPGKALEWLAHIFSNDEKSYSTSLKSRLTISKDTSKSQVVLTLTNMDPVDTATYFCARMPEYSSGWSGAFDIWGQGTMVTVSSGGGGSGGGGSGGGGSDIQMTQSPSSLSASVGDRVTITCRASQDIRDDLGWYQQKPGNAPKRLIYGASTLQSGVPSRFSGSGSGTEFTLTISSLQPEDFATYYCLQHNSYPLTFGGGTKVDIK
B12: FL-11 (scFv)
scFv: B5 scFv with A10V, H52Q, D57G, A98S, D167G, D170N, N181K, D244E
B13: FL-12 (scFv)
scFv: B9 scFv with Y31N, Q52N, N77K, T105S, F110Y, I118T, K184Q, D244E
B14: FL-13 (scFv)
scFv: QVTLKESGPTLVKPTETLTLTCTLSGFSLNNARMGVSWIRQPPGKALEWLAHIFSNDEKSYSTSLKNRLTISKDSSKTQVVLTMTNVDPVDTATYYCARIVGYGSGWYGFFDYWGQGTLVTVSSGGGGSGGGGSGGGGSDIQMTQSPSSLSASVGDRVTITCRASQGIRNDLGWYQQKPGKAPKRLIYAASTLQSGVPSRFSGSGSGTEFTLTISSLQPEDFATYYCLQHNSYPLTFGGGTKVEIK
B15: FL-14 (scFv)
scFv: B5 scFv with K33R, G35A, A46T, D170N, N181K, G189A, D244E
B16: FL-15 (scFv)
scFv: B5 scFv with K33R, G35A, A46T, R169G, D170N, N181K, G189A, T192S, D244E
B17: FL-16 (scFv)
scFv: QVTLKESGPVLVKPTETLTLTCTVSGFSLRNARMAVSWIRQPPGKTLEWLAHIFSNDEKSYSTSLKSRLTISKDTSKSQVVLTMTNMDPVDTATYYCARIVGYGSGWYGYFDYWGQGTLVTVSSGGGGSGGGGSGGGGSDIQMTQSPSSVSASVGDRVTITCRASQDIRYDLAWYQQKPGKAPKRLIYAASSLQSGVPSRFSGSGSGTEFTLTISSLQPEDFATYYCLQHNFYPLTFGGGTKVEIK
B18: FL-17 (scFv)
scFv: QVTLKESGPTLVKPTETLTLTCTVSGFSLSNARMGVSWIRQPPGKALEWLANIFSNDEKSYSTSLKSRLTISKGTSKSQVVLTMTNVNPVDTGTYYCARIVGYGSGWYGYFDYWGQGTLVTVSSGGGGSGGGGSGGGGSDIQMTQSPSSLSASVGDRVTITCRASQDIRNDLGWYQQKPGKAPKRLIYATSIRQSGVPSRFTGSGSGTEFTLTISGLQPEDFATYFCLQHNSFPLTFGGGTKVEIK
B19: FL-18 (scFv)
scFv: QVTLKESGPVLVKPTQTLTLTCTFSGFSLSNARMGVSWIRQPPGKALEWLAHIFSNDEKSFSTSLKNRLTISKDTSKSQVVLTMTNMDPVDTATYYCARMVGYGSGWYAYFDYWGQGTQVTVSSGGGGSGGGGSGGGGSDIQMTQSPSSLSASVGDRVTITCRASQSISSYLNWYQQKPGKAPKLLIYAASSLQSGVPSRFSGSGSGTDFTLTISSLQPEDFATYYCLQHNSYPLTFGGGTKVEIK
B20: FL-19 (scFv)
scFv: QVTLKESGPTLVKPTETLTLTCTVSGFSLSYARMGVSWIRQPPGKALEWLAQIFSNDEKSYSTSLKSRLTISKDTSKSQVVLTMTDMDPEDTATYYCARIVGYGTGWYGYFDYWGQGTQVTVSSGGGGSGGGGSGGGGSDIQMTQSPSSLSASVGDRVTITCRASQDIGDDLGWYQQKPGKAPKRLIYAASTLQSGVPFRFSGSGSGTDFTLTISSLQPEDFATYYCLQHNSYPLTFGGGTKVEIK
B21: FL-20 (scFv)
scFv: B7 scFv with T10A, P63T, G173A, F175Y, V192S, D244E
B22: FL-21 (scFv)
scFv: QVTLKESGPALVKPTETLTLTCTFSGFSLSNARMGVSWIRQPPGKALEWLAHIFSNDEKSYSTSLKSRLTISKDTSKSQVVLTMTNMDPVDTATYYCARIPGYGGNFYYHYYGMDVWGQGTTVTVSSGGGGSGGGGSGGGGSDIQMTQSPSSLSASVGDRVTITCRTSRGIRNDLGWYQQIPGRAPKRLIYAASTLQSGVPSRFSGSGSGTEFTLTISSLQPEDFATYYCLQHNNFPWTFGQGTKVEIK

These binders were tested against human FLT3 on transfected CHO cells (human) (UniProt P36888) (assay: FACS, scFv on CHO-human FLT3 cells pre-incubated with FLT3 ligand (competitor)).
Binder B1 has a median [+ligand]/median [w/o ligand]*100 of over 75%.
Work on B2 yielded a median [+ligand]/median [w/o ligand]*100 of over 75%.
With B3 the median [+ligand]/median [w/o ligand]*100 was over 75%.
B4 was tested, and the median [+ligand]/median [w/o ligand]*100 was over 75%.
With B5 the median [+ligand]/median [w/o ligand]*100 was over 75%.
B6 was tested, and the median [+ligand]/median [w/o ligand]*100 was over 75%.
In the case of B7, the median [+ligand]/median [w/o ligand]*100 is reported as over 75%.
With B8 the median [+ligand]/median [w/o ligand]*100 was over 75%.
Binder B9 has a median [+ligand]/median [w/o ligand]*100 of over 75%.
For B10, the median [+ligand]/median [w/o ligand]*100 was over 75%.
B11 was tested, and the median [+ligand]/median [w/o ligand]*100 was over 75%.
B12 was tested, and the median [+ligand]/median [w/o ligand]*100 was over 75%.
Binder B13 has a median [+ligand]/median [w/o ligand]*100 of over 75%.
In the case of B14, the median [+ligand]/median [w/o ligand]*100 is reported as over 75%.
B15 was tested, and the median [+ligand]/median [w/o ligand]*100 was over 75%.
With B16 the median [+ligand]/median [w/o ligand]*100 was over 75%.
Binder B17 has a median [+ligand]/median [w/o ligand]*100 of over 75%.
B18 was tested, and the median [+ligand]/median [w/o ligand]*100 was over 75%.
In the case of B19, the median [+ligand]/median [w/o ligand]*100 is reported as over 75%.
With B20 the median [+ligand]/median [w/o ligand]*100 was over 75%.
In the case of B21, the median [+ligand]/median [w/o ligand]*100 is reported as over 75%.
Binder B22 has a median [+ligand]/median [w/o ligand]*100 of over 75%.
